The labels stand for the following.
B1: His6-SUMO-tagged SH3 to PDZ domains of Shank2 (R520-D727), WT [not stated (human or rat cDNA cloned)] / synthetic peptide of the complete PDZ ligand of GKAP (last 15 amino acids of GKAP/SAPAP1) [not stated] (parent complex)
chain 1: RKLYSAVPGRLFVAVKPYQPQVDGEIPLHRGDRVKVLSIGEGGFWEGSARGHIGWFPAECVEEVQCKPRDSQAETRADRSKKLFRHYTVGSYDSFDTSSDCIIEEKTVVLQKKDNEGFGFVLRGAKADTPIEEFTPTPAFPALQYLESVDEGGVAWQAGLRTGDFLIEVNNENVVKVGHRQVVNMIRQGGNHLVLKVVTVTRNLDPDD
chain 2: ADSIEIYIPEAQTRL

The variants in one experiment derive from B1. In words: ITC; parent: 319 nM.
On to chain 1 RKLYSAVPGRLFVAVKPYQPQVDGEIPLHRGDRVKVLSIGEGGFWEGSARGHIGWFPAECVEEVQCKPRDSQAETRADRSKKLFRHYTVGYYDSFDTSSDCIIEEKTVVLQKKDNEGFGFVLRGAKADTPIEEFTPTPAFPALQYLESVDEGGVAWQAGLRTGDFLIEVNNENVVKVGHRQVVNMIRQGGNHLVLKVVTVTRNLDPDD [chain 1 S91Y], for which the dissociation constant (Kd) amounted to 910 nM.

For chain 1 RKLYSAVPGRLFVAVKPYQPQVDGEIPLHRGDRVKVLSIGEGGFWEGSARGHIGWFPAECVEEVQCKPRDSQAETRADRSKKLFRHYTVGSYDSFDTSSDCIIEEKTVVLQKKDNEGFGFVLRGAKADTPIEEFTPTPAFPALQYLESVDEGGVAWQAGLRTGDFLIEVNSENVVKVGHRQVVNMIRQGGNHLVLKVVTVTRNLDPDD [chain 1 N171S], the Kd is 411 nM. chain 1 RKLYSAVPGRLFVAVKPYQPQVDGEIPLHRGDRVKVLSIGEGGFWEGSARGHIGWFPAECVEEVQCKPRDSQAETRADRSKKLFRHYTVGSYDSFDTSSDCIIEEKTVVLQKKDNEGFGFVLRGAKADTPIEEFTPTPAFPALQYLESVDEGGVAWQAGLRTGDFLIEVNNENVVKVGHRQVVNMIRQGGNHLVLKVFTVTRNLDPDD [chain 1 V198F]: the Kd was 848 nM.

The variants in a further experiment derive from B1. The experiment is described as follows: ITC; parent: 320 nM.
In the case of chain 1 RKLYSAVPGRLFVAVKPYQPQVDGEIPLHRGDRVKVLSIGEGGFWEGSARGHIGWFPAECVEEVQCKPRDSQAETRADRSKKLFRHYTVGSYDSFDTSSDCIIEEKTVVLQKKDNEGFGFVLRRAKADTPIEEFTPTPAFPALQYLESVDEGGVAWQAGLRTGDFLIEVNNENVVKVGHRQVVNMIRQGGNHLVLKVVTVTRNLDPDD [chain 1 G124R], the Kd was 22500 nM.

In another experiment the parent is B1. The experiment is described as follows: ITC; parent: 319 nM. The source holds these as a separate data set.
Regarding chain 1 RKLYSAVPGRLFVAVKPYQPQVDGEIPLHRGDRVKVLSIGEGGFWEGSARGHIGWFPAECVEEVQCKPRDSQAETRADRSKKLFRHYTVGSYDSFDTSSDCIIEEKTVVLQKKDNEGFGFVLRRAKADTPIEEFTPTPAFPALQYLESVDEGGVAWQAGLRTGDFLIEVNNENVVKVGHRQVVNMIRQGGNHLVLKVVTVTRNLDPDD [chain 1 G124R], the Kd amounted to 22000 nM.

(Values after PMC11371640, “Structural deficits in key domains of Shank2 lead to alterations in postsynaptic nanoclusters and to a neurodevelopmental disorder in humans” (Molecular Psychiatry, 2022).)
